Experiment: UDP luminescence plate assay of E. coli extracts, mutants within SEQ ID No: 17, 2 mM metribuzin
Assay type: biochemical, Zea mays
Details: for metribuzin signal relative to the SEQ ID No:17 control (first parentheses) / ratio of metribuzin to DMSO signal (second parentheses) / SIGNAL: metribuzin signal of mutant divided by the signal of the SEQ ID No. 17 control / luminescence signal observed with 2 mM metribuzin: 2 mM metribuzin; for metribuzin signal relative to the SEQ ID No:17 control (first parentheses) / ratio of metribuzin to DMSO signal (second parentheses): additional mutation in SEQ ID No: 17; for SIGNAL: metribuzin signal of mutant divided by the signal of the SEQ ID No. 17 control: relative to SEQ ID No: 17 control; for luminescence signal in the DMSO control / luminescence signal observed with 2 mM metribuzin: additional mutations within SEQ ID No: 17; for luminescence signal in the DMSO control: DMSO in place of metribuzin; for luminescence signal observed with 2 mM metribuzin: control = SEQ ID No: 17
Description: Activities observed with metribuzin were generally lower in magnitude than seen with herbicide V in the previous examples. For example, in one plate assay run with 2 mM metribuzin using 5 ul of diluted extract of plate-grown BL21DE3 cells expressing w/t bx9 and assayed for 40 minutes (as described in Example 2) the UDP-Glo luminescence signal was ˜3.4 E6 as compared with ˜2.3E6 in the DMSO control and ˜1.7E6 in the H24A null mutant control. […] It was therefore important to assess potential improvements in the metribuzin activity of the various mutants relative to the wild type bx9 enzyme based not only on the H24A null activity control but also based upon controls with DMSO in place of metribuzin acceptor substrate. In some plate assays (using more dilute extracts) the metribuzin signals from the w/t enzyme was the same or barely greater than the DMSO control. Additionally, some mutations gave an increase in the ‘background’ UDP-glucose hydrolysis activity with just DMSO present that was the same or similar to the magnitude of the increase in signal seen with metribuzin. In these instances it is therefore uncertain from just this UDP-Glo assay method whether the specific metribuzin signal (glucosylation of metribuzin) is improved or not i.e. the signal seen with metribuzin may or may not all or to a large part be attributable to increased background hydrolysis). […] Thus the ratio of the metribuzin to DMSO signal as well as the increase in signal relative to the w/t bx9 is used to help distinguish those mutations most likely to offer the highest activity to metribuzin. A follow up assay monitored by, for example, LC MS is one method to distinguish these cases more quantitatively. The tables below summarise the results from two different sets of luminescence plate assays to detect single mutations giving improvements in the magnitude of the signal with metribuzin relative to w/t bx9 and/or the apparent specificity for metribuzin as measured by the deviation of the ratio of metribuzin to DMSO control activity from the bx9 w/t value of around unity.
A further separate screen was carried out to explore a library of additional mutations at various positions within the context of SEQ ID No: 17 for improved metribuzin activity. These were assayed, assessed and scored as above. […] These were S75K (2.5)(1.25), A236G (4.0)(1.15), A433V (3.3)(9.0) and R449C (1.8)(1.2).
A yet further and more comprehensive screen was carried out to explore saturation mutagenesis at all remaining amino acid positions within the context of SEQ ID No:17 for improved metribuzin activity. Again these were assayed, assessed and scored as above and the results of (out of the thousands screened) of the subset that were of interest are summarized in Table 16.

Molecule | metribuzin signal relative to the SEQ ID No:17 control (first parentheses) | ratio of metribuzin to DMSO signal (second parentheses) | SIGNAL: metribuzin signal of mutant divided by the signal of the SEQ ID No. 17 control | luminescence signal in the DMSO control | luminescence signal observed with 2 mM metribuzin
I430P: additional mutation in SEQ ID No: 17 (protein, Mutated Zea mays Bx9 protein sequence) MASSRTGAGAGGRVVVFPFPFQGHFNPVMRLARALHARGLAITVFHSGALDPADYPADYRFVPVTVEADPKLLASEDIAAIVTTLNASCDAPFRARLSALLAAEGRDSVRCVFTDVVWNAVLTASSDLGVPALGMMTASAASLRDYMAYRTLIDKGYLPVKEERKEDPVPELPPYLVKDLLRVDTSDLEEFAELLARTVTAARRASGLIFNTFPLIETDTLAEIHKALSVPVFAVAPLNKLVPTATASLHGVVQADRGCLQWLDTQQPGSVLYVSFGSFAAMDPHEFVELAWGLADSKRPFVWVVRPNLIRGFESGALPDGVEDEVRGRGIVVKWAPQEEVLAHPAVGGFLTHNGWNSTVEAISEGVPMVCCPRHGDQFGNMRYVCDVWKVGTELVGEQLERGQVKAAIDRLFGTKEGEEIKERMKEFKPAAAKGIGIGVDVDETASPRTDLTDLVDLIKSF | 2.8 | 1.34 | 2.82 | 3.83E+06 | 5.15E+06
A431P: additional mutation in SEQ ID No: 17 (protein, Mutated Zea mays Bx9 protein sequence) MASSRTGAGAGGRVVVFPFPFQGHFNPVMRLARALHARGLAITVFHSGALDPADYPADYRFVPVTVEADPKLLASEDIAAIVTTLNASCDAPFRARLSALLAAEGRDSVRCVFTDVVWNAVLTASSDLGVPALGMMTASAASLRDYMAYRTLIDKGYLPVKEERKEDPVPELPPYLVKDLLRVDTSDLEEFAELLARTVTAARRASGLIFNTFPLIETDTLAEIHKALSVPVFAVAPLNKLVPTATASLHGVVQADRGCLQWLDTQQPGSVLYVSFGSFAAMDPHEFVELAWGLADSKRPFVWVVRPNLIRGFESGALPDGVEDEVRGRGIVVKWAPQEEVLAHPAVGGFLTHNGWNSTVEAISEGVPMVCCPRHGDQFGNMRYVCDVWKVGTELVGEQLERGQVKAAIDRLFGTKEGEEIKERMKEFKIPAAKGIGIGVDVDETASPRTDLTDLVDLIKSF | 2.8 | 1.32 | 2.81 | 3.87E+06 | 5.12E+06
F213W: additional mutation in SEQ ID No: 17 (protein, Mutated Zea mays Bx9 protein sequence) MASSRTGAGAGGRVVVFPFPFQGHFNPVMRLARALHARGLAITVFHSGALDPADYPADYRFVPVTVEADPKLLASEDIAAIVTTLNASCDAPFRARLSALLAAEGRDSVRCVFTDVVWNAVLTASSDLGVPALGMMTASAASLRDYMAYRTLIDKGYLPVKEERKEDPVPELPPYLVKDLLRVDTSDLEEFAELLARTVTAARRASGLIFNTWPLIETDTLAEIHKALSVPVFAVAPLNKLVPTATASLHGVVQADRGCLQWLDTQQPGSVLYVSFGSFAAMDPHEFVELAWGLADSKRPFVWVVRPNLIRGFESGALPDGVEDEVRGRGIVVKWAPQEEVLAHPAVGGFLTHNGWNSTVEAISEGVPMVCCPRHGDQFGNMRYVCDVWKVGTELVGEQLERGQVKAAIDRLFGTKEGEEIKERMKEFKIAAAKGIGIGVDVDETASPRTDLTDLVDLIKSF | 4.7 | 1.24 | 4.75 | 6.96E+06 | 8.66E+06
P214D: additional mutation in SEQ ID No: 17 (protein, Mutated Zea mays Bx9 protein sequence) MASSRTGAGAGGRVVVFPFPFQGHFNPVMRLARALHARGLAITVFHSGALDPADYPADYRFVPVTVEADPKLLASEDIAAIVTTLNASCDAPFRARLSALLAAEGRDSVRCVFTDVVWNAVLTASSDLGVPALGMMTASAASLRDYMAYRTLIDKGYLPVKEERKEDPVPELPPYLVKDLLRVDTSDLEEFAELLARTVTAARRASGLIFNTFDLIETDTLAEIHKALSVPVFAVAPLNKLVPTATASLHGVVQADRGCLQWLDTQQPGSVLYVSFGSFAAMDPHEFVELAWGLADSKRPFVWVVRPNLIRGFESGALPDGVEDEVRGRGIVVKWAPQEEVLAHPAVGGFLTHNGWNSTVEAISEGVPMVCCPRHGDQFGNMRYVCDVWKVGTELVGEQLERGQVKAAIDRLFGTKEGEEIKERMKEFKIAAAKGIGIGVDVDETASPRTDLTDLVDLIKSF | 3.7 | 1.34 | 3.66 | 4.99E+06 | 6.67E+06
L215D: additional mutation in SEQ ID No: 17 (protein, Mutated Zea mays Bx9 protein sequence) MASSRTGAGAGGRVVVFPFPFQGHFNPVMRLARALHARGLAITVFHSGALDPADYPADYRFVPVTVEADPKLLASEDIAAIVTTLNASCDAPFRARLSALLAAEGRDSVRCVFTDVVWNAVLTASSDLGVPALGMMTASAASLRDYMAYRTLIDKGYLPVKEERKEDPVPELPPYLVKDLLRVDTSDLEEFAELLARTVTAARRASGLIFNTFPDIETDTLAEIHKALSVPVFAVAPLNKLVPTATASLHGVVQADRGCLQWLDTQQPGSVLYVSFGSFAAMDPHEFVELAWGLADSKRPFVWVVRPNLIRGFESGALPDGVEDEVRGRGIVVKWAPQEEVLAHPAVGGFLTHNGWNSTVEAISEGVPMVCCPRHGDQFGNMRYVCDVWKVGTELVGEQLERGQVKAAIDRLFGTKEGEEIKERMKEFKIAAAKGIGIGVDVDETASPRTDLTDLVDLIKSF | 3.1 | 1.34 | 3.14 | 4.26E+06 | 5.72E+06
I216Y: additional mutation in SEQ ID No: 17 (protein, Mutated Zea mays Bx9 protein sequence) MASSRTGAGAGGRVVVFPFPFQGHFNPVMRLARALHARGLAITVFHSGALDPADYPADYRFVPVTVEADPKLLASEDIAAIVTTLNASCDAPFRARLSALLAAEGRDSVRCVFTDVVWNAVLTASSDLGVPALGMMTASAASLRDYMAYRTLIDKGYLPVKEERKEDPVPELPPYLVKDLLRVDTSDLEEFAELLARTVTAARRASGLIFNTFPLYETDTLAEIHKALSVPVFAVAPLNKLVPTATASLHGVVQADRGCLQWLDTQQPGSVLYVSFGSFAAMDPHEFVELAWGLADSKRPFVWVVRPNLIRGFESGALPDGVEDEVRGRGIVVKWAPQEEVLAHPAVGGFLTHNGWNSTVEAISEGVPMVCCPRHGDQFGNMRYVCDVWKVGTELVGEQLERGQVKAAIDRLFGTKEGEEIKERMKEFKIAAAKGIGIGVDVDETASPRTDLTDLVDLIKSF | 3.5 | 1.33 | 3.50 | 4.79E+06 | 6.38E+06
A234C: additional mutation in SEQ ID No: 17 (protein, Mutated Zea mays Bx9 protein sequence) MASSRTGAGAGGRVVVFPFPFQGHFNPVMRLARALHARGLAITVFHSGALDPADYPADYRFVPVTVEADPKLLASEDIAAIVTTLNASCDAPFRARLSALLAAEGRDSVRCVFTDVVWNAVLTASSDLGVPALGMMTASAASLRDYMAYRTLIDKGYLPVKEERKEDPVPELPPYLVKDLLRVDTSDLEEFAELLARTVTAARRASGLIFNTFPLIETDTLAEIHKALSVPVFCVAPLNKLVPTATASLHGVVQADRGCLQWLDTQQPGSVLYVSFGSFAAMDPHEFVELAWGLADSKRPFVWVVRPNLIRGFESGALPDGVEDEVRGRGIVVKWAPQEEVLAHPAVGGFLTHNGWNSTVEAISEGVPMVCCPRHGDQFGNMRYVCDVWKVGTELVGEQLERGQVKAAIDRLFGTKEGEEIKERMKEFKIAAAKGIGIGVDVDETASPRTDLTDLVDLIKSF | 3.0 | 1.29 | 2.96 | 4.20E+06 | 5.40E+06

— patent publication US20200270588A1, “GLUCOSYL TRANSFERASE POLYPEPTIDES AND METHODS OF USE” (Syngenta Participations AG, priority 2017, published 2020)
